Experimental data: patent US20250019427A1
Where a chain is given by its changes, count along the chain named. Blank lines part the entries; values can stand above or below the binder they belong to.

How the values were obtained:
Human GDF15 Fc (human) [1] = molecular target: T1, Human GDF15 Fc (human) (UniProt Q99988); assay: Octet BLI, Fab monovalent
T1 sequence (chain, biotinylated (EZ-Link Sulfo-NHS-Biotinylation Kit) where printed as biotinylated): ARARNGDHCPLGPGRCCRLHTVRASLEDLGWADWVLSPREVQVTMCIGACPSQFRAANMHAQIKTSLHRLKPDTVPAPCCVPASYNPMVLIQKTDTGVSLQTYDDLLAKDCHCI

Human GDF15 Fc (human) [2] = molecular target: T1, Human GDF15 Fc (human); assay: SPR Biacore, Fab monovalent
Human GDF15 Fc (human) [3] = molecular target: T1, Human GDF15 Fc (human); assay: Octet BLI, IgG on tip, avid

Kd (Human GDF15 Fc (human) [1]): 0.613 nM
Kd (Human GDF15 Fc (human) [2]): 0.0411 nM
koff (Human GDF15 Fc (human) [2]): 4.52e-05 s⁻¹
kon (Human GDF15 Fc (human) [2]): 1.1e+06 M⁻¹ s⁻¹
B6: Clone T Fab (Fab, V domains shown)
VH: QVQLVQSGAEVKKPGASVKVSCKASGYTFTSYGINWVRQAPGQGLEWMGWITAYSGDTNYAQKLQGRVTMTTDTSTSTAYMELRSLRSDDTAVYYCARGPGQYADVDVWGQGTMVTVSS
VL: DIQMTQSPSSVSASVGDRVTITCRASQGISSWLAWYQQKPGKAPKLLIYAASSLQSGVPSRFSGSGSGTDFTLTISSLQPEDFATYYCQQASQFPITFGGGTKVEIK

Kd (Human GDF15 Fc (human) [1]): 3.68 nM
Kd (Human GDF15 Fc (human) [2]): 0.126 nM
koff (Human GDF15 Fc (human) [2]): 0.0021 s⁻¹
kon (Human GDF15 Fc (human) [2]): 1.66e+07 M⁻¹ s⁻¹
B7: Clone P Fab (Fab, V domains shown)
VH: QVQLVQSGAEVKKPGATVKVSCKASGYTFDSYGIHWVRQAPGQGLEWMGWITAYSGDTVYAQKLQGRVTMTTDTSTSTAYMELRSLRSDDTAVYYCARESGQTSSALGPWGQGTLVTVSS
VL: B6 VL with S31R, A91G, S92A, Q93S, I96L

Kd (Human GDF15 Fc (human) [1]): 0.216 nM
Kd (Human GDF15 Fc (human) [2]): 0.0341 nM
koff (Human GDF15 Fc (human) [2]): 7.11e-05 s⁻¹
kon (Human GDF15 Fc (human) [2]): 2.08e+06 M⁻¹ s⁻¹
B8: Clone O Fab (Fab, V domains shown)
VH: B7 VH with Y32L, I34M, H35S, W50Y, T52S, A53T, T103Q, S104V, G108D
VL: B6 VL with S31R, A91G, S92A, Q93S, I96L

Kd (Human GDF15 Fc (human) [1]): 0.48 nM
Kd (Human GDF15 Fc (human) [2]): 0.0369 nM
koff (Human GDF15 Fc (human) [2]): 4.93e-05 s⁻¹
kon (Human GDF15 Fc (human) [2]): 1.34e+06 M⁻¹ s⁻¹
B10: Clone S Fab (Fab, V domains shown)
VH: B6 VH
VL: B6 VL with M4L, S31P, S92N, Q93S

Kd (Human GDF15 Fc (human) [3]): 0.274 nM
B14: Clone P IgG (antibody, V domains shown)
VH: B7 VH
VL: DIQMTQSPSSVSASVGDRVTITCRASQGISRWLAWYQQKPGKAPKLLIYAASSLQSGVPSRFSGSGSGTDFTLTISSLQPEDFATYYCQQGASFPLTFGGGTKVEIKR

Kd (Human GDF15 Fc (human) [3]): 0.379 nM
B15: Clone O IgG (antibody, V domains shown)
VH: B7 VH with Y32L, I34M, H35S, W50Y, T52S, A53T, T103Q, S104V, G108D
VL: B14 VL

Kd (Human GDF15 Fc (human) [3]): 0.325 nM
B16: Clone L IgG (antibody, V domains shown)
VH: QVQLVQSGAEVKKPGASVKVSCKASGYTFASYDIIWVRQAPGQGLEWMGWISALSGDTVYAQKLQGRVTMTTDTSTSTAYMELRSLRSDDTAVYYCARTRHDTSGIRFDYWGQGTLVTVSS
VL: B14 VL with S30D, R31S, G91V, A92H, L96I

The remaining lines, values behind:

B1: Clone E Fab (Fab, V domains shown)
VH: B6 VH
VL: B6 VL with S92N, Q93S
Kd (Human GDF15 Fc (human) [1]): 0.921 nM
Kd (Human GDF15 Fc (human) [2]): 0.0331 nM
koff (Human GDF15 Fc (human) [2]): 8.71e-05 s⁻¹
kon (Human GDF15 Fc (human) [2]): 2.63e+06 M⁻¹ s⁻¹

B2: Clone L Fab (Fab, V domains shown)
VH: B16 VH
VL: B6 VL with S30D, A91V, S92H, Q93S
Kd (Human GDF15 Fc (human) [1]): 1.58 nM
Kd (Human GDF15 Fc (human) [2]): 0.144 nM
koff (Human GDF15 Fc (human) [2]): 0.000576 s⁻¹
kon (Human GDF15 Fc (human) [2]): 3.99e+06 M⁻¹ s⁻¹

B3: Clone I IgG (antibody, V domains shown)
VH: B6 VH with S31D, Y32E, N59V
VL: B14 VL with R31S, G91A, A92N, L96I
Kd (Human GDF15 Fc (human) [3]): 0.262 nM

B4: Clone J Fab (Fab, V domains shown)
VH: B6 VH with T52D, D57S
VL: B6 VL with S92N, Q93S
Kd (Human GDF15 Fc (human) [1]): 1.28 nM
Kd (Human GDF15 Fc (human) [2]): 0.0884 nM
koff (Human GDF15 Fc (human) [2]): 0.000404 s⁻¹
kon (Human GDF15 Fc (human) [2]): 4.57e+06 M⁻¹ s⁻¹

B5: Clone J IgG (antibody, V domains shown)
VH: B6 VH with T52D, D57S
VL: B14 VL with R31S, G91A, A92N, L96I
Kd (Human GDF15 Fc (human) [3]): 0.276 nM

B9: Clone E IgG (antibody, V domains shown)
VH: B6 VH
VL: B14 VL with R31S, G91A, A92N, L96I
Kd (Human GDF15 Fc (human) [3]): 0.278 nM

B11: Clone K Fab (Fab, V domains shown)
VH: B16 VH with A30T, S31N, Y32E, D33G, I35S, L54Y, S55T, G56A, V59F, I106L
VL: B6 VL with S30D, A91V, S92H, Q93S
Kd (Human GDF15 Fc (human) [1]): 2.11 nM
Kd (Human GDF15 Fc (human) [2]): 0.23 nM
koff (Human GDF15 Fc (human) [2]): 0.00112 s⁻¹
kon (Human GDF15 Fc (human) [2]): 4.87e+06 M⁻¹ s⁻¹

B12: Clone I Fab (Fab, V domains shown)
VH: B6 VH with S31D, Y32E, N59V
VL: B6 VL with S92N, Q93S
Kd (Human GDF15 Fc (human) [1]): 1.25 nM
Kd (Human GDF15 Fc (human) [2]): 0.0672 nM
koff (Human GDF15 Fc (human) [2]): 0.000259 s⁻¹
kon (Human GDF15 Fc (human) [2]): 3.85e+06 M⁻¹ s⁻¹

B13: Clone K IgG (antibody, V domains shown)
VH: B16 VH with A30T, S31N, Y32E, D33G, I35S, L54Y, S55T, G56A, V59F, I106L
VL: B14 VL with S30D, R31S, G91V, A92H, L96I
Kd (Human GDF15 Fc (human) [3]): 0.271 nM
